Experimental findings from PMC8322407 (Communications Biology, 2021) are described below.

Data set [1] deals with T1, Human Arginase 1 (hArg1), trimeric (human, UniProt P05089).
T1 construct: Human arginase 1, full-length, untagged; trimeric metalloenzyme, each monomer ~35 kDa; buffers contained MnCl2 (the SPR buffer contained 3 mM EDTA); also called trimeric hArg1; human Arg1; source: E. coli BL21 (DE3), purified (heat treatment, HiTrap-SP, Superdex 200)
Briefly: cryo-EM structure; hArg1 and full-length mAb mixed at 3:1 molar ratio in 25 mM HEPES pH 7.4, 150 mM NaCl, 1.0 mM MnCl2, incubated 30 min; diluted to ~75 uM monomeric arginase, DDM added to the CMC. To be noted: both partners purified.

For a further data set, the target named is T2, mouse Arg1 (Mus musculus (Mouse)., UniProt Q61176).
T2 construct: Mouse arginase 1; construct not described; also called mouse arginase
T2 sequence (Q61176 whole entry): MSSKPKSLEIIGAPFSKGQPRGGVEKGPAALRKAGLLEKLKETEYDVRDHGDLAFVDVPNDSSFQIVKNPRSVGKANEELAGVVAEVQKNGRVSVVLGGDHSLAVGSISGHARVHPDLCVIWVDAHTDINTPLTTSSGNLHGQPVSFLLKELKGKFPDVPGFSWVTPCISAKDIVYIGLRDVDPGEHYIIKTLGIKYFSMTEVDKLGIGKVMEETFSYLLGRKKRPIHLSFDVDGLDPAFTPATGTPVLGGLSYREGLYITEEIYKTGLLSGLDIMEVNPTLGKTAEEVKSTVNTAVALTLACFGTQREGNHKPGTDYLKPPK
In words: enzyme inhibition kinetics; Thioarginine to thioornithine assay; 1 nM human or mouse arginase incubated 30 min at room temperature with fixed antibody concentrations, variable thioarginine; 50 mM Tris pH 7.5, 50 mM NaCl, 1 mM Mn chloride, 0.05% BSA; competitive inhibition model. To be noted: both partners purified.

Data set [2] concerns the molecule itself. Briefly: cryo-EM structure; hArg1 and full-length mAb mixed at 3:1 molar ratio in 25 mM HEPES pH 7.4, 150 mM NaCl, 1.0 mM MnCl2, incubated 30 min; diluted to ~75 uM monomeric arginase, DDM added to the CMC.
Data set [3] has as its target T1, Human Arginase 1 (hArg1), trimeric. Briefly: enzyme inhibition kinetics; Thioarginine to thioornithine assay; 1 nM human or mouse arginase incubated 30 min at room temperature with fixed antibody concentrations, variable thioarginine; 50 mM Tris pH 7.5, 50 mM NaCl, 1 mM Mn chloride, 0.05% BSA; competitive inhibition model. Particulars: both partners purified.
The target of data set [4] is T3, Monomeric hArg1 (Arg308 mutated to alanine) (Homo sapiens (Human)., UniProt P05089, Arg308 to an alanine residue).
T3 construct: Human arginase 1 with Arg308 at the monomer interface mutated to alanine, which gives a monomer; also called monomeric human ARG1
Briefly: SPR; Antibody captured on an anti-mouse IgG or anti-human Fc surface (CM5 chip, Biacore T200 or 4000); human ARG1 injected, twofold dilutions from 100 nM; 10 mM HEPES, 150 mM NaCl, 0.05% P20, 3 mM EDTA, pH 7.4; 25 °C; 1:1 binding model. Particulars: both partners purified.

Data set [5] concerns the target T1, Human Arginase 1 (hArg1), trimeric. The description is as above. To be noted: both partners purified.

B1: mAb5 (antibody, V domains shown)
VH: EVQLVESGGGVVRPGGSLRLSCAASGFTFDDYGMTWVRQAPGKGLEWVSGINWNGGSTGYADSVKGRFTISRDNAKNSLYLQMNSLRAEDTALYHCARDRRRGSYGSDAFDIWGQGTMVTVSS
VL: DIQMTQSPSSLSASVGDRVTITCRASQGISNYLAWYQQKPGKVPQLLISAASTLQSGVPSRFSGSGSGTDFTLTISSLQPEDVATYYCQKYNSAPRTFGQGTKVEIK
notes: Human heavy chain variable domain from a transgenic (Trianni) mouse immunization; heavy chain of the Fab in PDB 7LEY; Human light chain variable domain from a transgenic (Trianni) mouse immunization; light chain of the Fab in PDB 7LEY; Mouse kappa light chain constant region (mouse IgG1 D265A/kappa backbone); Full-length mAb, human variable regions on a mouse IgG1 D265A/kappa backbone; source: …
Consider B1, for which the binding result in data set [1] is recorded as “binds”. The same molecule showed a Ki in the data set with mouse Arg1 of 25 ± 1.7 nM.

B2: Human Arginase 1 (hArg1), trimeric (enzyme, UniProt P05089 1-322, looked up)
chain: MSAKSRTIGIIGAPFSKGQPRGGVEEGPTVLRKAGLLEKLKEQECDVKDYGDLPFADIPNDSPFQIVKNPRSVGKASEQLAGKVAEVKKNGRISLVLGGDHSLAIGSISGHARVHPDLGVIWVDAHTDINTPLTTTSGNLHGQPVSFLLKELKGKIPDVPGFSWVTPCISAKDIVYIGLRDVDPGEHYILKTLGIKYFSMTEVDRLGIGKVMEETLSYLLGRKKRPIHLSFDVDGLDPSFTPATGTPVVGGLTYREGLYITEEIYKTGLLSGLDIMEVNPSLGKTPEEVTRTVNTAVAITLACFGLAREGNHKPIDYLNPPK
notes: Human arginase 1, full-length, untagged; trimeric metalloenzyme, each monomer ~35 kDa; buffers contained MnCl2 (the SPR buffer contained 3 mM EDTA); also called trimeric hArg1; human Arg1; source: E. coli BL21 (DE3), purified (heat treatment, HiTrap-SP, Superdex 200)
As for B2, the “stoichiometry N” value in data set [2] came out at 3.

B3: mAb1 (antibody, V domains shown)
VH: QVQLVQSGAEVKKPGASVKVSCKASGYTFTNYGISWVRQAPGQGLEWMGWISAYNGNTNYAQKLQGRVTMTTDTSTSTAYMELRSLRSDDTAVYYCAREGAYGYRSPYHNWFDPWGQGTLVTVSS
VL: EIVMTQSPATLSLSPGERATLSCRASQSVSSYLAWYQQKPGQAPRLLIYDASNRATGIPARFSGSGSGTDFTLTISSLEPEDFAVYYCQQHSLLPRTFGGGTKVEIK
notes: Human heavy chain variable domain from yeast display; heavy chain of the Fab in PDB 7LEX and 7LEZ; Mouse IgG2a heavy chain constant region (backbone); Human light chain variable domain from yeast display; light chain of the Fab in PDB 7LEX and 7LEZ; Mouse kappa light chain constant region (mouse IgG2a/kappa backbone); Full-length mAb, human variable regions on a mouse IgG2a/kappa backbone; The Fc …
B3 yielded a Ki in data set [3] of 3.3 ± 0.3 nM.

B4: mAb2 (antibody, V domains shown)
VH: B3 VH
VL: B3 VL
notes: Human heavy chain variable domain, identical to that of m3 (mAb1); heavy chain of the Fab in PDB 7LF0; Human light chain variable domain, identical to that of m3 (mAb1); light chain of the Fab in PDB 7LF0; Mouse kappa light chain constant region (mouse IgG1 D265A/kappa backbone); Full-length mAb; differs from mAb1 only in the constant domains; also called mAbs1-3 (member); source: ExpiCHO-S, …
Take B4: the Ki in data set [3] amounted to 5.3 ± 0.8 nM.

B5: mAb4 (antibody, V domains shown)
VH: EVQLVQSGAEVKKPGASVKVSCKASGYTFTDYYMNWVRQAPGQGLEWIGVISPYNGGTTYNQKFKGKATLTVDKSTSTAYMELSSLRSEDTAVYYCVYDLYYFDYWGQGTLVTVSS
VL: EIVLTQSPATLSLSPGERATLSCRASQRISNDLHWYQQKPGQAPRLLIKYASQSISGIPSRFSGSGSGTDFTLTISSLEPEDFAVYYCQQSNSWPRTFGGGTKLEIK
B5: the figures for the Kd in data set [4] and in data set [5] were 20 nM and 0.56 nM, respectively.
